Measured values published in article PMC4133371.

Biological target: endogenous E-cadherin (dog (endogenous in MDCK))
Assay: co-IP; endogenous E-cadherin collected by antibodies to its extracellular part from lysates of MDCK cells expressing DsRed, DECT, DECTSA, DECTN or DECTC; immunoblot with anti-β-catenin or anti-plakoglobin; bands quantified with NIH Image as percent of DsRed cells

endogenous E-cadherin (dog (endogenous in MDCK)), sequence (F1PAA9 27-885): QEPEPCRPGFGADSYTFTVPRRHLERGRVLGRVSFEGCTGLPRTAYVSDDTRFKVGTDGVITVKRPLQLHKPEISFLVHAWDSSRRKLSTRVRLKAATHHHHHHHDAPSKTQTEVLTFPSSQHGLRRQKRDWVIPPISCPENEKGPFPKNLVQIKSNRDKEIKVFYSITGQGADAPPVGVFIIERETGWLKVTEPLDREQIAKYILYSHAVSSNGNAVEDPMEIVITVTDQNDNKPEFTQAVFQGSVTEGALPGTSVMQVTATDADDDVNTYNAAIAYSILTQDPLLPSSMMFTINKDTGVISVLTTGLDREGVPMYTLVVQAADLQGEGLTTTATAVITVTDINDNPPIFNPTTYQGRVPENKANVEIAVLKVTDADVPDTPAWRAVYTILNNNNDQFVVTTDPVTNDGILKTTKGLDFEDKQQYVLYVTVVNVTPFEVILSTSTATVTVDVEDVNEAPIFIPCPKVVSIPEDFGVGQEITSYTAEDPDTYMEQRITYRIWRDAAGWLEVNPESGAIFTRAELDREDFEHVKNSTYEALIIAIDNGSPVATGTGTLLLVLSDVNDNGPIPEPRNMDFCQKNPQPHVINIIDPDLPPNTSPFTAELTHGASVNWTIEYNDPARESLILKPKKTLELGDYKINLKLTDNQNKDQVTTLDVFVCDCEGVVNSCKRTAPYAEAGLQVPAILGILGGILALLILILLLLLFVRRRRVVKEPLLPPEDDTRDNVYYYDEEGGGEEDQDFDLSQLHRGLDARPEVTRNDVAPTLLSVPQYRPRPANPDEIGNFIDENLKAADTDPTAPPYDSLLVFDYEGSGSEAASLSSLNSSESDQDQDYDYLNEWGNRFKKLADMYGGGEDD

Molecule | percent co-precipitated with endogenous E-cadherin relative to DsRed cells (cells expressing DECT) | percent co-precipitated with endogenous E-cadherin relative to DsRed cells (cells expressing DECTC) | percent co-precipitated with endogenous E-cadherin relative to DsRed cells (cells expressing DECTN) | percent co-precipitated with endogenous E-cadherin relative to DsRed cells (cells expressing DsRed)
plakoglobin (natural protein) | 33% | 187% | 100% | 100%
β-catenin (natural protein) MATQADLMELDMAMEPDRKAAVSHWQQQSYLDSGIHSGATTTAPSLSGKGNPEEEDVDTTQVLYEWEQGFSQSFTQEQVADIDGQYAMTRAQRVRAAMFPETLDEGMQIPSTQFDAAHPTNVQRLAEPSQMLKHAVVNLINYQDDAELATRAIPELTKLLNDEDQVVVNKAAVMVHQLSKKEASRHAIMRSPQMVSAIVRTMQNTNDVETARCTAGTLHNLSHHREGLLAIFKSGGIPALVKMLGSPVDSVLFYAITTLHNLLLHQEGAKMAVRLAGGLQKMVALLNKTNVKFLAITTDCLQILAYGNQESKLIILASGGPQALVNIMRTYTYEKLLWTTSRVLKVLSVCSSNKPAIVEAGGMQALGLHLTDPSQRLVQNCLWTLRNLSDAATKQEGMEGLLGTLVQLLGSDDINVVTCAAGILSNLTCNNYKNKMMVCQVGGIEALVRTVLRAGDREDITEPAICALRHLTSRHQEAEMAQNAVRLHYGLPVVVKLLHPPSHWPLIKATVGLIRNLALCPANHAPLREQGAIPRLVQLLVRAHQDTQRRTSMGGTQQQFVEGVRMEEIVEGCTGALHILARDVHNRIVIRGLNTIPLFVQLLYSPIENIQRVAAGVLCELAQDKEAAEAIEAEGATAPLTELLHSRNEGVATYAAAVLFRMSEDKPQDYKKRLSVELTSSLFRTEPMAWNETADLGLDIGAQGEPLGYRQDDPSYRSFHSGGYGQDALGMDPMMEHEMGGHHPGADYPVDGLPDLGHAQDLMDGLPPGDSNQLAWFDTDL | 4% | 24% | 102% | 100%
